Values quoted from earlier work in publication PMC8070256, “Feasibility of Developing Radiotracers for MDM2: Synthesis and Preliminary Evaluation of an ^18F-Labeled Analogue of the MDM2 Inhibitor SP-141” (Pharmaceuticals, 2021).

Target: MDM2 (Homo sapiens) (UniProt Q00987)
Sequence (Q00987 whole entry): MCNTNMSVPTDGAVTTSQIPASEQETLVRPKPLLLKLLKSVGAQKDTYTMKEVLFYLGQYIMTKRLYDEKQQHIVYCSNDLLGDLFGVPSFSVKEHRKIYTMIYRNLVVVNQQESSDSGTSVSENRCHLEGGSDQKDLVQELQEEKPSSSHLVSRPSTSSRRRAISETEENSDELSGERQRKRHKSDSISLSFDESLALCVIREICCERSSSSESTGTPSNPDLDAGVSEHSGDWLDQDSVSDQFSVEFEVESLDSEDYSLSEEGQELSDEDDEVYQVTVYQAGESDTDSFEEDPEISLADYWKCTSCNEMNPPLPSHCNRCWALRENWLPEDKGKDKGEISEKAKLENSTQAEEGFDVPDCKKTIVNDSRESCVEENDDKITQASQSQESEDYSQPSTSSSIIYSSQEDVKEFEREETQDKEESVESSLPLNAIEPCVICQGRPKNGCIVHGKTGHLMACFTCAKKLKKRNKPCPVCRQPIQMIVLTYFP

- Ki: 1.1 µM
Substance: p53 peptide (from UniProt P04637)
